In PMC8906423:
“And” between values parts separate entries of the source, which are not always exact repeats. Identical values can stand only once.

Tests used:
[1] = molecular target: Δ123A7-S chimera (H77c E2 Δ123 with 7 Cys-to-Ala mutations fused to the N terminus of DHBV S antigen) (hepatitis C virus genotype 1a, H77c | duck hepatitis B virus) (UniProt P27958); assay: co-sedimentation + other: quantitative Western blot; gradient-purified VLP preparations; amount and proportion of E2 and S within VLPs quantified with Image Studio software; 4 consecutive preps
[2] = molecular target: RBDA7-S chimera (H77c E2 RBD with 7 Cys-to-Ala mutations fused to the N terminus of DHBV S antigen) (hepatitis C virus genotype 1a, H77c | duck hepatitis B virus) (UniProt P27958); assay: as above

## duck hepatitis B virus (DHBV) small surface antigen (S) (natural protein)
[1]
  stoichiometry N (mol S per mol Δ123A7-S): 2 and 4
[2]
  stoichiometry N (mol S per mol RBDA7-S): 4 and 10 and 7
